Measurements: paper PMC4390766
Where two headings read alike, the source gives them in different places.

Experiments:
[1] = target: HMP-2_(54arm) (C. elegans) (UniProt O44326); assay: ITC
β-catenin [2] = target: β-catenin (UniProt P35222); conditions: cited from earlier work
β-catenin [3] = target: β-catenin (UniProt P35222); conditions: cited from earlier work; remark: listed apart in the source
[4] = target: HMP-2_(54end) (C. elegans) (UniProt O44326); assay: ITC

Chain of UniProt P35222 (P35222 2-781): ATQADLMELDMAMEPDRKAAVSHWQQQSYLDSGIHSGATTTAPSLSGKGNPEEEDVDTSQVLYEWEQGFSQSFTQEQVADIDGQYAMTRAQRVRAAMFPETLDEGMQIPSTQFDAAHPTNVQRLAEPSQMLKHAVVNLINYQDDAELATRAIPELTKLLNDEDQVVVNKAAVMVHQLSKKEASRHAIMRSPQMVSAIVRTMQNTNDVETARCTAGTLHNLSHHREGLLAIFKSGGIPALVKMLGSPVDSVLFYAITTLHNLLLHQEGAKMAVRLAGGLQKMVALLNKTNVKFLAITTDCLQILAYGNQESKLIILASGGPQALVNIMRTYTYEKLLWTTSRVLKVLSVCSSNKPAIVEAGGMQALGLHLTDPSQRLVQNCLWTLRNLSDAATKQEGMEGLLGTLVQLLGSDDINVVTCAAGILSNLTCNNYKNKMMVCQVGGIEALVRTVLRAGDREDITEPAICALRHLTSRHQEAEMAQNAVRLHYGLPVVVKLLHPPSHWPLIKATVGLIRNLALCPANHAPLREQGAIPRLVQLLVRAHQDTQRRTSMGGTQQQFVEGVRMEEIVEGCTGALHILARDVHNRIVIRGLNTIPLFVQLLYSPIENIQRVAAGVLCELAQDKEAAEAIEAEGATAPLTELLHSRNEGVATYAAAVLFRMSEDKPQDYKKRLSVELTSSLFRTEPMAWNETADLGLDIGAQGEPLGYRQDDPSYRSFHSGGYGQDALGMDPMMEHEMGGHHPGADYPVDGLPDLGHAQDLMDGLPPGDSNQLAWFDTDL

| Substance | Kd [1] | Kd [4] | Kd (β-catenin [2]) | Kd (β-catenin [3]) |
| --- | --- | --- | --- | --- |
| E-cadherin cytoplasmic domain (from UniProt P12830) |  |  | 46 nM | 0.052 nM |
| HMR-1(T1215A)_(cyto80), non-phosphorylated (domain or fragment) | 610 nM |  |  |  |

More lines, main results first:

| Kd [1] | Kd [4] | Substance | Kd (β-catenin [2]) | Kd (β-catenin [3]) |
| --- | --- | --- | --- | --- |
| 380 nM |  | HMR-1_(cyto80) (domain or fragment) |  |  |
| 3.1 nM | 23 nM | pHMR-1_(cyto80) (domain or fragment) |  |  |
| 26 nM |  | pHMR-1(T1215A)_(cyto80) (domain or fragment) |  |  |
